Results published in patent publication US20130011412A1.

Molecular target: T1, recombinant human lymphotoxin-α homotrimer (human LTα3) (human) (UniProt P01374)
T1 sequence (looked up): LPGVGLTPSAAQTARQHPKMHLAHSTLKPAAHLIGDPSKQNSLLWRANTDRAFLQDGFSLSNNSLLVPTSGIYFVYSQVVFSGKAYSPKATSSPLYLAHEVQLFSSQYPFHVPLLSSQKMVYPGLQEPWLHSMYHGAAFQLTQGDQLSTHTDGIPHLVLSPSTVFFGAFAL
Experiment: plate-based ELISA against LTα

B1: 3F12 version 8 (3F12.v5 with G95A, CDR-H3) (antibody, IgG1, V domains shown)
VH: EVQLVESGGGLVQPGGSLRLSCAASGYTFSSYWIEWVRQAPGKGLEWVGEISPGSGSTNYNEEFKGRATFSADNSKNTAYLQMNSLRAEDTAVYYCADAYHGYWGQGTLVTVSS
VL: DIQMTQSPSSLSASVGDRVTITCKSSQSLLYSTNQKNFLAWYQQKPGKAPKLLIYWASTRDSGVPSRFSGSGSGTDFTLTISSLQPEDFATYYCQQYYSYPRTFGQGTKVEIK
  relative binding (EC50 of the variant / EC50 of version 5): > 100

B2: 3F12 version 10 (3F12.v5 with H100A, CDR-H3) (antibody, IgG1, V domains shown)
VH: EVQLVESGGGLVQPGGSLRLSCAASGYTFSSYWIEWVRQAPGKGLEWVGEISPGSGSTNYNEEFKGRATFSADNSKNTAYLQMNSLRAEDTAVYYCADGYAGYWGQGTLVTVSS
VL: DIQMTQSPSSLSASVGDRVTITCKSSQSLLYSTNQKNFLAWYQQKPGKAPKLLIYWASTRDSGVPSRFSGSGSGTDFTLTISSLQPEDFATYYCQQYYSYPRTFGQGTKVEIK
  relative binding (EC50 of the variant / EC50 of version 5): > 100
